The chains are these.
T1: GST-Abp1 SH3 domain (S. cerevisiae, UniProt P15891 532-592)
T1 chain: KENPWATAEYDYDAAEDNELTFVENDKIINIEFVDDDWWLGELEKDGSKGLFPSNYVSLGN

B1: Ark1 peptide(s) on the Abp1 SPOT membrane (peptide)
chain: SKDKKTKPTPPPKP
modifications: also: bound to cellulose membrane (SPOT)
B2: Scp1 peptide(s) on the Abp1 SPOT membrane (peptide)
chain: LSTKKPRPPVKSKP
modifications: also: bound to cellulose membrane
B3: Prk1 peptide(s) on the Abp1 SPOT membrane (peptide)
chain: GKDKSRPPRPPPKP
modifications: also: bound to cellulose membrane (SPOT)
B4: Yir003w peptide(s) on the Abp1 SPOT membrane (peptide)
chain: RPKRRAPPPVPKKP
modifications: also: bound to cellulose SPOT membrane
B5: Srv2 peptide(s) on the Abp1 SPOT membrane (peptide)
chain: PPPRPKKP
modifications: also: bound to cellulose membrane
B6: RVS167 SH3 domain (protein)
chain: PGVETVTALYDYQAQAAGDLSFPAGAVIEIVQRTPDVNEWWTGRYNGQQGVFPGNYVQLNKN
B7: YFR024C SH3 domain (protein)
chain: TSSPKAVALYSFAGEESGDLPFRKGDVITILKKSDSQNDWWTGRVNGREGIFPANYVELV
B8: BOI2 SH3 domain (protein)
chain: GNFPMYIAINEYFKRMEDELDMKPGDKIKVITDDEEYKDGWYFGRNLRTNEEGLYPVVFTQKITV

By Kd is commonly meant the concentration at which binding is half-saturated.

No end group written: not given here. A value given as a limit tells only on which side of the number the result lay.

The first assay concerns the target T1, GST-Abp1 SH3 domain. As to the kind of experiment: SPR. (In SPR one partner is held on a chip, and binding of the other changes the refractive index at the surface.)
B1 gave a Kd of 24 µM.

Take B2: the dissociation constant Kd came to 14 µM.

B3: binding was put at a Kd of 22 µM.

B4 came in with a Kd of 0.9 µM.

The molecule B5 had a Kd of 75 µM.

In a further assay the target is T1, GST-Abp1 SH3 domain. The assay is described as follows: SPR. This is another data set of the same source.
As for B1, binding was characterised by a dissociation constant (Kd) of 24 µM.

In turn, B2 gave a Kd of 14 µM.

B3: the Kd is 22 µM.

For the molecule B4, the affinity, expressed as Kd, was 0.92 µM.

B5 returned a Kd of 75 µM.

The target in a further assay is B6. The assay is described as follows: SPR.
Take B1: the Kd is above 100 µM.

The molecule B3 yielded a Kd above 100 µM.

Molecule B4 yielded a Kd of 13 µM.

The target of another assay is YPR171 peptide. The assay is described as follows: SPR.
In turn, B6 returned a Kd of 16 µM.

B7 registered a Kd of 4.8 µM.

B8 gave a Kd above 100 µM.

The target in the next assay is YMR192 peptide. As to the kind of experiment: SPR.
As for B8, the Kd is above 100 µM.

The target in another assay is YJR083C peptide. As to the kind of experiment: SPR.
Regarding B8, the Kd was above 100 µM.

(Values after PMC314469 (2004).)
